Laboratory results from article PMC2954371.

Target: mosPTP-1 including the transmembrane region (91bp-2202bp), Aedes aegypti AAEL013105, on S2 cells (Aedes aegypti)
Assay: flow cytometry on cells

Substance: mosGCTL-1 (mosquito Galactose-specific binding C-Type Lectin), Aedes aegypti AAEL000563 (natural protein)
- percent of mosPTP-1-expressing cells that bound mosGCTL-1: > 40%
